Data: paper PMC8417012, “Characterization of Arabidopsis thaliana R2R3 S23 MYB Transcription Factors as Novel Targets of the Ubiquitin Proteasome-Pathway and Regulators of Salt Stress and Abscisic Acid Response” (Frontiers in Plant Science, 2021)

T1: His:BPM3 (Arabidopsis thaliana, UniProt O22286 1-408)
T1 construct: BPM3, MATH-BTB/POZ protein, Arabidopsis thaliana; cloned into pET21b (NdeI/XhoI); pET21b usually adds a C-terminal His6 tag (surmised); also called His-tagged BPM3; source: E. coli, purified on Ni-NTA agarose beads (remained on the beads)
T1 sequence (looked up): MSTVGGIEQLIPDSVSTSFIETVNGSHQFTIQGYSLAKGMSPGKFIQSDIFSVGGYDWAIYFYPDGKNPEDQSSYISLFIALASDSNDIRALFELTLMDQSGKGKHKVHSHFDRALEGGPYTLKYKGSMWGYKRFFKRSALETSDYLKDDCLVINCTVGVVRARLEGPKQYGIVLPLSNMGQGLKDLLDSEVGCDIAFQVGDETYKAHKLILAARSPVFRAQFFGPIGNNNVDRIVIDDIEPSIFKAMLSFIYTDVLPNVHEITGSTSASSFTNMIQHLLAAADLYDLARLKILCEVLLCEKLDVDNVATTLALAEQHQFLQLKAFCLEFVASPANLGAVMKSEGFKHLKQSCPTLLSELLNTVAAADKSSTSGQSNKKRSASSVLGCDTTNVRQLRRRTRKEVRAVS

T2: His:BPM5 (Arabidopsis thaliana, UniProt Q1EBV6 1-410)
T2 construct: BPM5, MATH-BTB/POZ protein, Arabidopsis thaliana; cloned into pET21b (NdeI/XhoI); pET21b usually adds a C-terminal His6 tag (surmised); also called His-tagged BPM5; source: E. coli, purified on Ni-NTA agarose beads (remained on the beads)
T2 sequence (looked up): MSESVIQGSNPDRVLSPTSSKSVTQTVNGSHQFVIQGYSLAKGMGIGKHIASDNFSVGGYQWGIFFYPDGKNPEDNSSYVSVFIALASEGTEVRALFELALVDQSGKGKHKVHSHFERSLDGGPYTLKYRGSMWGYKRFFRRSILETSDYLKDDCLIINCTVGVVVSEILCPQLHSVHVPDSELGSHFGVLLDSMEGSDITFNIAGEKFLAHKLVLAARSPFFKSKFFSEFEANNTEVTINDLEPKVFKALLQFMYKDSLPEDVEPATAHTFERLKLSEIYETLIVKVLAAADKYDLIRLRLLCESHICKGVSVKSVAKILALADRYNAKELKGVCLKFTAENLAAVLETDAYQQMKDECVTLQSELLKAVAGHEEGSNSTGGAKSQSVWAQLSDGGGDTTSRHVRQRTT

T3: His:BPM1 (Arabidopsis thaliana, UniProt Q8L765 1-407)
T3 construct: BPM1, MATH-BTB/POZ protein, Arabidopsis thaliana; cloned into pET21b (NdeI/XhoI); pET21b usually adds a C-terminal His6 tag (surmised); also called His-tagged BPM1; source: E. coli, purified on Ni-NTA agarose beads (remained on the beads)
T3 sequence (looked up): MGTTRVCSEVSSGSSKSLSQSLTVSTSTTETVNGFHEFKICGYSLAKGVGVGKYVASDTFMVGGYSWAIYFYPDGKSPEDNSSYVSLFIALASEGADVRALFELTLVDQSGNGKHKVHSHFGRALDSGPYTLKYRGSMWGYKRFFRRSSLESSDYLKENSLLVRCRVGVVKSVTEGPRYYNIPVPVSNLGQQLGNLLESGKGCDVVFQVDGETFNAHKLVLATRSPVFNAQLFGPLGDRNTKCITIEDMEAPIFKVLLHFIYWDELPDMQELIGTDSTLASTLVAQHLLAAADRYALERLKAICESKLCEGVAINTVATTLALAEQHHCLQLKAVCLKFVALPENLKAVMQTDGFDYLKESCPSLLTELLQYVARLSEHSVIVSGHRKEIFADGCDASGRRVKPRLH


Key:
Experiment in all cases: pull-down; His:BPM proteins kept on Ni-NTA agarose beads, incubated with eluted GST-tagged proteins in 0.1 M Tris pH 7.5, 150 mM NaCl, 0.5% NP-40, PMSF, 2 h at 4°C, three washes; blots with anti-GST and anti-His
Settings in all cases: both partners purified
His:BPM3 = target: T1, His:BPM3
His:BPM5 = target: T2, His:BPM5
His:BPM1 = target: T3, His:BPM1

binding result (His:BPM3)	binding result (His:BPM5)	binding result (His:BPM1)	Binder
binds	binds	binds	GST:MYB25 (natural protein, MYB25, Arabidopsis thaliana, At2g39880, 367 AA; cDNA in pDEST15; GST fusion ~67.8 kDa; also called GST-tagged MYB25; source: E. coli, purified (glutathione agarose beads), eluted; not shown: GST, N-terminal, kept) not shown
binds	binds	binds	GST:MYB1 (natural protein, MYB1, Arabidopsis thaliana, At3g09230, 393 AA; cDNA; GST fusion ~69.7 kDa; Two GST constructs of MYB1 are described (pDEST15 by Gateway; pHB2-GST from the clone DKLAT3G09230); also called GST-tagged MYB1; source: E. coli, purified (glutathione agarose beads), eluted; not shown: GST, N-terminal, kept) not shown
